Laboratory results published in patent US20170306017A1 (VACCINEX, published 2017).
Read-outs that look alike come from different tables or passages of the source.

T1: mouse CD100 (mouse, UniProt O09126 24-733, limits assumed)
T1 construct: also called murine CD100; muCD100
T1 sequence: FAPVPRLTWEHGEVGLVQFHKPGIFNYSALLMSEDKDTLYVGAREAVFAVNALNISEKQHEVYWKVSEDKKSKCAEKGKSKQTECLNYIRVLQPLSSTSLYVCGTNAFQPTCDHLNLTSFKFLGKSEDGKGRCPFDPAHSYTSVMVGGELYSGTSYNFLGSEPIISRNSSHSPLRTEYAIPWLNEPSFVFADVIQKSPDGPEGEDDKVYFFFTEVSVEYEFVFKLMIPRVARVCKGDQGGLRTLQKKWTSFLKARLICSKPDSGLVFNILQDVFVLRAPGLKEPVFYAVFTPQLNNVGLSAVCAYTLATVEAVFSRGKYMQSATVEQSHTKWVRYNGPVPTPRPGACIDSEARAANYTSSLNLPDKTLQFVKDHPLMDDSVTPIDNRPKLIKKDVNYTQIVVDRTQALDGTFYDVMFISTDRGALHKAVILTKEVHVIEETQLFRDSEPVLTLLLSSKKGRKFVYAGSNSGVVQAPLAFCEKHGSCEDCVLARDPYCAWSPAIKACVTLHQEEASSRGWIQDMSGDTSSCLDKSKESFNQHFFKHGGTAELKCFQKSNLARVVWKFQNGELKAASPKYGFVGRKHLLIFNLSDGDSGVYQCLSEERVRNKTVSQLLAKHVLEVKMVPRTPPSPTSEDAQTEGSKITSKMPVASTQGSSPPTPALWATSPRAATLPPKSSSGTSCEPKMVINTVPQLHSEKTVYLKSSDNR

T2: human CD100 (human, UniProt Q92854 22-734, limits assumed)
T2 construct: also called huCD100; SEMA4D
T2 sequence: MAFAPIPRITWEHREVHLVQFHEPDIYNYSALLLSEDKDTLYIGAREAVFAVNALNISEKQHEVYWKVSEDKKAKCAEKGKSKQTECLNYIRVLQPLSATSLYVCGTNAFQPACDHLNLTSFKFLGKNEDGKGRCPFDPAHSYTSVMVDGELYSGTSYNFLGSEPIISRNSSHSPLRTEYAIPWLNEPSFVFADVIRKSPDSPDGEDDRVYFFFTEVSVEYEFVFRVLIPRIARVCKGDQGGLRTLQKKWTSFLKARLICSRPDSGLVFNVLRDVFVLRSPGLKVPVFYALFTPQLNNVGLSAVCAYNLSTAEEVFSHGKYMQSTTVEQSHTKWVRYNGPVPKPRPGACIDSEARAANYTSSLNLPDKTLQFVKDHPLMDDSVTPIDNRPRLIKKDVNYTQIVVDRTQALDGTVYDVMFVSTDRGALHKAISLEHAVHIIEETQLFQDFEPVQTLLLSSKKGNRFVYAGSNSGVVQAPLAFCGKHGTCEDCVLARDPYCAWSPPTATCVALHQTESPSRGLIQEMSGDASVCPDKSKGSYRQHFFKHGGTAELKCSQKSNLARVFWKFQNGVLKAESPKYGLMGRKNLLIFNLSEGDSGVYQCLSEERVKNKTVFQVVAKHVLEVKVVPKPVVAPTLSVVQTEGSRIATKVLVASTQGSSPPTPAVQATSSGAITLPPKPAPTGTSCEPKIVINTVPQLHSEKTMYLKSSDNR

T3: marmoset CD100 (marmoset, UniProt A0A8I3W811 22-734)
T3 construct: also called marmCD100; monkey CD100
T3 sequence: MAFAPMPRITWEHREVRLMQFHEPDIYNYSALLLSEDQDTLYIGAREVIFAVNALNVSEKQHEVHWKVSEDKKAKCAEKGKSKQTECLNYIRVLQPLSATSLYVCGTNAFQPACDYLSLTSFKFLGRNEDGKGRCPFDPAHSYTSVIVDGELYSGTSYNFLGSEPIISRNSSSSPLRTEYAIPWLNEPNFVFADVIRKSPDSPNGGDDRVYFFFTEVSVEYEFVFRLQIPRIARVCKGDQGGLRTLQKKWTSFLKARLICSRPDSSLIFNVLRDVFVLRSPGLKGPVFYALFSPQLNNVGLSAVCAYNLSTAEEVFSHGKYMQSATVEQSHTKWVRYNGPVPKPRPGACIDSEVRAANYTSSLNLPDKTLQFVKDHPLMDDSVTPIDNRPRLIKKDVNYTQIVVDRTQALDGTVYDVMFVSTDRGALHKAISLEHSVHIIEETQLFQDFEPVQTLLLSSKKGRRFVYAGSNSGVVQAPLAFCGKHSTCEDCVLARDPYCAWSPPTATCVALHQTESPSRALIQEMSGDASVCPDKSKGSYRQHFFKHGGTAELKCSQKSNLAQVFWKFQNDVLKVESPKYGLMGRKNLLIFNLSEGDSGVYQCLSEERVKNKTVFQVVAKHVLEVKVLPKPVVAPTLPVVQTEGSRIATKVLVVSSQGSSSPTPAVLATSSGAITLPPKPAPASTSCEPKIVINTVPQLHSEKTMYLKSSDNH

T4: human CD100-Fc (human, UniProt Q92854 22-734, limits assumed)
T4 sequence: T2 sequence

B1: MAb 76 (antibody, IgG2b, V domains shown)
VH: QVQLQQSGAELAKPGASVKMSCKASGYTFTRYWMHWVKQRPGQGLEWIGYINPSTGYSDYNQKFKDKATLTADKSSSTAYMQLSSLTSEDSAVYYCARDPYGWTMDSWGQGTLVTVSS
VL: DIQMTQSPSSLSASLGDTITITCHASQNINVWLSWYQQKPGNIPKLLIYKASNLHTGVPSRFSGSGSGTGFTLTISSLQPEDIATYYCQQGQSYPYTFGGGTKLEIK
notes: also called clone 76-1; 76-1
B2: MAb 67 (antibody, IgG1, V domains shown)
VH: QVQLQQSGPELVKPGASVKISCKASGYSFSDYYMHWVKQSPENSLEWIGQINPTTGGASYNQKFKGKATLTVDKSSSTAYMQLKSLTSEESAVYYCTRYYYGRHFDVWGQGTTVTVSS
VL: DIVMTQSPASLAVSLGQRATISCKASQSVDYDGDSYMNWYQQKPGQPPKLLIYAASNLESGIPARFSGSGSGTDFTLNIHPVEEEDAATYYCQQSNEDPYTFGGGTKLEIK
notes: also called mouse MAb 67; murine MAb 67
B3: MAb 2503 (antibody, V domains shown)
VH: QVQLVQSGAEVKKPGSSVKVSCKASGYSFSDYYMHWVRQAPGQGLEWMGQINPTTGGASYNQKFKGKATITVDKSTSTAYMELSSLRSEDTAVYYCARYYYGRHFDVWGQGTTVTVSS
VL: DIVMTQSPDSLAVSLGERATINCKASQSVDYDGDSYMNWYQQKPGQPPKLLIYAASNLESGVPDRFSGSGSGTDFTLTISSLQAEDVAVYYCQQSNEDPYTFGQGTKLEIK
notes: also called humanized MAb 67; H2160/L553

Columns and labels:
[1] = biological target: T1, mouse CD100; test: BIACORE surface plasmon resonance
[2] = biological target: T2, human CD100; test: BIACORE surface plasmon resonance
[3] = biological target: T3, marmoset CD100; test: BIACORE surface plasmon resonance
Protocol: (§1) Binding affinities of anti-CD100 MAbs were determined using BIACORE® surface plasmon resonance technology.

[4] = biological target: T4, human CD100-Fc; test: competition ELISA on plate-coated human CD100-Fc; unlabelled antibody titrated first, competitor biotinylated MAb 67 detected with streptavidin-HRP
Protocol: For the ELISA protocol, an ELISA plate was coated with CD100-Fc. […] The antibodies were allowed to bind to CD100 and unbound antibody was wash away. Biotinylated MAb 67 was added. Biotinylated MAb 67 bound to CD100 was detected using Streptavidin-HRP.

[5] = biological target: T1, mouse CD100; test: BIACORE surface plasmon resonance; remark: listed apart in the source
Protocol: as §1

[6] = biological target: T2, human CD100; test: BIACORE surface plasmon resonance; remark: listed apart in the source
Protocol: as §1

Binder	Kd [1]	Kd [2]	Kd [3]	IC50 (read off the curve) [4]	Kd [5]	Kd [6]
B1	0.33 nM	0.12 nM	–	–	–	–
B2	–	–	2.7 nM	–	–	–
B3	–	–	2.4 nM	~0.2 nM	1.5 nM	5.4 nM
